Reference: patent US7264809B1, “Methods of inhibiting platelet activation and recruitment” (Immunex Corporation, priority 1998, dated 2007)

How the values were obtained:
[1] = Phosphate release assay for ATPase activity; assay type: biochemical; settings: for ATPase activity, CPM × 10^3 (net counts): Table 3, 5-day 1× COS-1 sups
Method: This example describes an ATPase assay that may be used to track enzyme activity. Samples (approximately 100 μl of either concentrated CM or purified polypeptide) are combined with 20 μl of 10× assay buffer (200 mM HEPES, 1.2 M NaCl, 50 mM KCl, 15 mM CaCl2, 15 mM MgCl2 and 3 mM ATP) and sterile water is added to a final volume of 200 μl. Radiolabeled ATP (0.8 μCi γ [^32P] ATP; Amersham, Arlington Heights, Ill.) is added and the mixture incubated for 20 minutes at 37° C. […] After centrifugation (14K rpm for 10 minutes), the supernatant is assayed for free ^32P using a scintillation counter. Data are expressed as raw counts or net counts, or as picomoles of ATP degraded per minute. […] The transfections were repeated and the CM (10, 20 and 30 μL, unconcentrated) was assayed essentially as described in Example 7. […] ATPase levels in CM from COS-1 cells transfected with pIL2LFlagSolCD39 increased with time in culture over at least 4 days post-transfection. To determine whether activity was affected by removal of the N-terminal FLAG® tag, COS-1 cells were transfected with pIL2LFlagSolCD39 and pIL2LSolCD39 and supernatants (sups) were harvested after 5 days. Samples of 10, 20 and 30 μL of 1× sups were assayed for ATPase activity as described in Example 7. […] The expression of Trim1 and Trim2 constructs was analyzed in COS-1 cells cultured in 10 cm plates. After 5 days of incubation, 1× supernatants were examined via ELISA (using anti-CD39) and the phosphate-release assay described in Example 7. […] Expression levels, however, appeared to be reduced 3-4 fold.

[2] = tested on: platelets; assay: ADP-induced platelet aggregation after solCD39 bolus in pigs; assay type: in vivo, Yorkshire-Hampshire pigs; settings: high dose solCD39
Method: Aspirin was administered orally on a daily basis. Placebo controls consisted of aspirin. Saline controls and solCD39 were administered as a single bolus. Time points were measured following this administration. Blood samples were obtained via an external jugular vein catheter. […] ADP-induced platelet aggregation was measured at specific time intervals following administration. The concentration of CD39 in serum as a function of time was measured using an ELISA assay.

[3] = design: species or system pigs; settings: pig, in vivo
Method: Aspirin was administered orally on a daily basis. Placebo controls consisted of aspirin. Saline controls and solCD39 were administered as a single bolus. Time points were measured following this administration. Blood samples were obtained via an external jugular vein catheter. […] ADP-induced platelet aggregation was measured at specific time intervals following administration. The concentration of CD39 in serum as a function of time was measured using an ELISA assay. Distribution and clearance half-lives were determined using a biphasic curve fit.

[4] = tested on: platelets; assay: Ex vivo additive inhibition of platelet aggregation in patient platelet rich plasma; assay type: cell-based, human
[5] = tested on: murine platelets; assay: Ex vivo aggregation of murine platelets; assay type: in vivo, C57BL/6J mice; settings: PRP 1 hour after soluble CD39 4 mg/kg or aspirin 5 mg/kg
Method: C57BL/6J mice (6-8 wk) were obtained from Jackson Laboratories (Bar Harbor, Me.). […] 80 μL of 3.8% trisodium citrate was added to each mL of blood. […] The PRP contained 400-700×10^3 platelets per μL. All experiments were completed within 2 hours of blood collection. PRP (200 μL) was preincubated, for 3 min. at 37° C., with 100 μL Tris-buffered saline buffer ([…], 5 mM glucose, pH 7.4) in an aggregometer cuvette (Lumiaggregometer; Chrono-Log, Havertown, Pa.), and the platelet agonists ADP, collagen, or sodium arachidonate were added at the final concentrations indicated.

[6] = Murine model of stroke (middle cerebral artery occlusion); assay type: in vivo, mice
Method: Anesthetized mice were maintained at 37±2° C. during and for 90 min following surgery. A midline neck incision was made and the right carotid artery exposed. Middle cerebral artery occlusion was accomplished by advancing a 13-mm heat-blunt tipped 6-0 nylon suture via an arteriotomy in the external carotid stump. The external carotid artery was cauterized to secure hemostasis, and arterial flow reestablished. […] Surgical staples were used for wound closure. […]

[7] = Bleeding time in mice; assay type: in vivo; settings: aspirin 5 mg/kg; increasing doses of solCD39 (4, 8, 20 mg/kg)
Source text: (*p<0.05, ^‡p<0.01, ^†p<0.001).
Hematological profiles, including erythrocyte parameters, platelet counts, leukocyte counts and differentials, and coagulation screening, were normal. […] Under those conditions, the defect was abolished and normal blood fluidity was restored by administration of soluble CD39.

[8] = administered three hours following stroke induction
[9] = prior to, or up to 3 h following, stroke

B1: solCD39: recombinant soluble human CD39, untagged: 12 mature huIL2 residues, three amino acid linker, sol CD39 (SEQ ID NO:7) (protein)
chain: MALWIDRMQLLSCIALSLALVTNSAPTSSSTKKTQLTSSTQNKALPENVKYGIVLDAGSSHTSLYIYKWPAEKENDTGVVHQVEECRVKGPGISKFVQKVNEIGIYLTDCMERAREVIPRSQHQETPVYLGATAGMRLLRMESEELADRVLDVVERSLSNYPFDFQGARIITGQEEGAYGWITINYLLGKFSQKTRWFSIVPYETNNQETFGALDLGGASTQVTFVPQNQTIESPDNALQFRLYGKDYNVYTHSFLCYGKDQALWQKLAKDIQVASNEILRDPCFHPGYKKVVNVSDLYKTPCTKRFEMTLPFQQFEIQGIGNYQQCHQSILELFNTSYCPYSQCAFNGIFLPPLQGDFGAFSAFYFVMKFLNLTSEKVSQEKVTEMMKKFCAQPWEEIKTSYAGVKEKYLSEYCFSGTYILSLLLQGYHFTADSWEHIHFIGKIQGSDAGWTLGYMLNLTNMIPAEQPLSTPLSHST
ATPase activity, CPM × 10^3 (net counts) ([1]; 10 μL): 20.1 CPM × 10^3 | ATPase activity, CPM × 10^3 (net counts) ([1]; 20 μL): 36.0 CPM × 10^3 | ATPase activity, CPM × 10^3 (net counts) ([1]; 30 μL): 51.0 CPM × 10^3 | Activity (pmol ATP/min/μg) × 10^3 ([1]; specific activity in COS-1 CM, concentration by ELISA): 5.67 (pmol ATP/min/μg) × 10^3 | inhibition of platelet aggregation at two weeks [2]: 30% | elimination half-life of biological activity (ADPase activity) [3]: 5-7 days | t1/2α (distribution phase) [3]: 29 min | Platelet aggregation ([4]; SolCD39 10 μg/ml, ADP, Abciximab group): 0 ± 0 arbitrary units | Platelet aggregation ([4]; SolCD39 10 μg/ml, ADP, Aspirin group): 4 ± 2 arbitrary units | Platelet aggregation ([4]; SolCD39 10 μg/ml, ADP, Clopidogrel group): 5 ± 2 arbitrary units | Platelet aggregation ([4]; SolCD39 10 μg/ml, ADP, Placebo group): 0 ± 0 arbitrary units | Platelet aggregation ([4]; SolCD39 10 μg/ml, ADP, Ticlopidine group): 10 ± 2 arbitrary units | Platelet aggregation ([4]; SolCD39 10 μg/ml, Collagen, Abciximab group): 0 ± 0 arbitrary units | Platelet aggregation ([4]; SolCD39 10 μg/ml, Collagen, Aspirin group): 21 ± 4 arbitrary units | Platelet aggregation ([4]; SolCD39 10 μg/ml, Collagen, Clopidogrel group): 31 ± 9 arbitrary units | Platelet aggregation ([4]; SolCD39 10 μg/ml, Collagen, Placebo group): 75 ± 2 arbitrary units | Platelet aggregation ([4]; SolCD39 10 μg/ml, Collagen, Ticlopidine group): 48 ± 18 arbitrary units | Platelet aggregation ([4]; SolCD39 10 μg/ml, TRAP, Abciximab group): 22 ± 10 arbitrary units | Platelet aggregation ([4]; SolCD39 10 μg/ml, TRAP, Aspirin group): 38 ± 7 arbitrary units | Platelet aggregation ([4]; SolCD39 10 μg/ml, TRAP, Clopidogrel group): 35 ± 1 arbitrary units | Platelet aggregation ([4]; SolCD39 10 μg/ml, TRAP, Placebo group): 70 ± 3 arbitrary units | Platelet aggregation ([4]; SolCD39 10 μg/ml, TRAP, Ticlopidine group): 19 ± 6 arbitrary units | Platelet aggregation ([4]; SolCD39 100 μg/ml, ADP, Abciximab group): 0 ± 0 arbitrary units | Platelet aggregation ([4]; SolCD39 100 μg/ml, ADP, Aspirin group): 1 ± 0 arbitrary units | Platelet aggregation ([4]; SolCD39 100 μg/ml, ADP, Clopidogrel group): 0 ± 0 arbitrary units | Platelet aggregation ([4]; SolCD39 100 μg/ml, ADP, Placebo group): 0 ± 0 arbitrary units | Platelet aggregation ([4]; SolCD39 100 μg/ml, ADP, Ticlopidine group): 2 ± 2 arbitrary units | Platelet aggregation ([4]; SolCD39 100 μg/ml, Collagen, Abciximab group): 0 ± 0 arbitrary units | Platelet aggregation ([4]; SolCD39 100 μg/ml, Collagen, Aspirin group): 16 ± 4 arbitrary units | Platelet aggregation ([4]; SolCD39 100 μg/ml, Collagen, Clopidogrel group): 21 ± 6 arbitrary units | Platelet aggregation ([4]; SolCD39 100 μg/ml, Collagen, Placebo group): 57 ± 5 arbitrary units | Platelet aggregation ([4]; SolCD39 100 μg/ml, Collagen, Ticlopidine group): 37 ± 15 arbitrary units | Platelet aggregation ([4]; SolCD39 100 μg/ml, TRAP, Abciximab group): 22 ± 9 arbitrary units | Platelet aggregation ([4]; SolCD39 100 μg/ml, TRAP, Aspirin group): 26 ± 5 arbitrary units | Platelet aggregation ([4]; SolCD39 100 μg/ml, TRAP, Clopidogrel group): 23 ± 3 arbitrary units | Platelet aggregation ([4]; SolCD39 100 μg/ml, TRAP, Placebo group): 65 ± 4 arbitrary units | Platelet aggregation ([4]; SolCD39 100 μg/ml, TRAP, Ticlopidine group): 18 ± 7 arbitrary units | ex vivo platelet aggregation, collagen ([5]; 2.5 μg/ml collagen): attenuated | ex vivo platelet aggregation, ADP ([5]; 10 μM ADP): abrogated | ex vivo platelet aggregation, arachidonate ([5]; 0.1 mM sodium arachidonate): attenuated | fibrin accumulation in the ipsilateral hemisphere ([6]; 8 mg/kg, Western blot): decreased | postischemic cerebral perfusion / blood flow ([6]; 24 hours after stroke induction): improved | infarction volume [6, 8]: reduced | postischemic blood flow [6, 8]: restored | intracerebral hemorrhage ([6]; following stroke, spectrophotometric): no significant increase | cerebral infarct volume ([6]; preoperative administration, aspirin 5 mg/kg): dose-dependent diminution | platelet accumulation in the ipsilateral cerebral hemisphere ([6]; pretreated with 8 mg/kg i.v.): inhibited | mortality [6, 9]: reduced | neurological deficit [6, 9]: reduced | infarct volume in CD39−/− mice ([6]; reconstituted CD39−/− mice): markedly diminished | bleeding times [7]: markedly increased
